Assay results reported in PMC2811000.

How the values were obtained:
[1] = biological target: acrylodan-labeled FHA domain of PNKP (human) (UniProt Q96T60); test: other fluorescence titration
[2] = biological target: acrylodan-labeled C-terminal catalytic kinase/phosphatase domain of PNKP (human); test: other fluorescence titration

Row | Substance | AC fluorescence quenching [1] | Kd [1] | stoichiometry N [1] | AC fluorescence quenching [2] | Kd [2]
1 | CK2-phosphorylated XRCC1 (from UniProt P18887 1-633) (natural protein) | 50% | 3.5 nM | 1.08 | 8% | –
2 | non-phosphorylated XRCC1 (from UniProt P18887 1-633) (natural protein) | – | – | – | – | 43 nM
